T1: HA-1^H, minor histocompatibility antigen encoded by HMHA1 (Rho GTPase-activating protein 45), R139H … (human)
T1 peptide: VLHDDLLEA


Biological target: T1, HA-1^H, minor histocompatibility …
Assay: multimer staining

Row | binding result | Binder
1 | recognises | HA-1^H TCR M2 (TCR, V domains shown) Valpha: GENVEQHPSTLSVQEGDSAVIKCTYSDSASNYFPWYKQELGKRPQLIIDIRSNVGEKKDQRIAVTLNKTAKHFSLHITETQPEDSAVYFCAARNSGAGSYQLTFGKGTKLSVIP Vbeta: DTGVSQNPRHKITKRGQNVTFRCDPISEHNRLYWYRQTLGQGPEFLTYFQNEAQLEKSRLLSDRFSAERPKGSFSTLEIQRTEQGDSAMYLCASLTVQNTEAFFGQGTRLTVV
2 | recognises | HA-1^H TCR M7 (TCR, V domains shown) Valpha: GQQVMQIPQYQHVQEGEDFTTYCNSSTTLSNIQWYKQRPGGHPVFLIQLVKSGEVKKQKRLTFQFGEAKKNSSLHITATQTTDVGTYFCAGNTGGFKTIFGAGTRLFVKA Vbeta: DTGVSQDPRHKITKRGQNVTFRCDPISEHNRLYWYRQTLGQGPEFLTYFQNEAQLEKSRLLSDRFSAERPKGSFSTLEIQRTEQGDSAMYLCASSLLGNQPQHFGDGTRLSIL
3 | recognises | Chimeric HA-1 TCR: M7 TCR alpha chain (TRAV25*01) with M2 TCR beta chain (TRBV7-9) (TCR, V domains shown) Valpha: GQQVMQIPQYQHVQEGEDFTTYCNSSTTLSNIQWYKQRPGGHPVFLIQLVKSGEVKKQKRLTFQFGEAKKNSSLHITATQTTDVGTYFCAGNTGGFKTIFGAGTRLFVKA Vbeta: DTGVSQNPRHKITKRGQNVTFRCDPISEHNRLYWYRQTLGQGPEFLTYFQNEAQLEKSRLLSDRFSAERPKGSFSTLEIQRTEQGDSAMYLCASLTVQNTEAFFGQGTRLTVV

Biological target: T2, HA-1 pMHC tetramer (human)
T2 construct: also called HA-1 tetramer; HA-1-tetramer
Assay: HA-1 pMHC tetramer staining of peripheral T cells transduced with the TCR chains, flow cytometry

Row | MFI of HA-1 pMHC tetramer [MFI] | Binder
4 | 24.2 | HA-1-TCR of clone M2 (M2 TRBV7-9 with M2 TRAV13-1*02) (TCR, V domains shown, Expressed on transduced peripheral T cells; also called HA-1^H TCR M2) V domain 1: GENVEQHPSTLSVQEGDSAVIKCTYSDSASNYFPWYKQELGKRPQLIIDIRSNVGEKKDQRIAVTLNKTAKHFSLHITETQPEDSAVYFCAARNSGAGSYQLTFGKGTKLSVIP V domain 2: DTGVSQNPRHKITKRGQNVTFRCDPISEHNRLYWYRQTLGQGPEFLTYFQNEAQLEKSRLLSDRFSAERPKGSFSTLEIQRTEQGDSAMYLCASLTVQNTEAFFGQGTRLTVVE
5 | 32.6 | Chimeric TCR: M2 TRBV7-9 beta chain with M7 TRAV25*01 alpha chain (TCR, V domains shown, The entries include the leader) V domain 1: GQQVMQIPQYQHVQEGEDFTTYCNSSTTLSNIQWYKQRPGGHPVFLIQLVKSGEVKKQKRLTFQFGEAKKNSSLHITATQTTDVGTYFCAGNTGGFKTIFGAGTRLFVKA V domain 2: DTGVSQNPRHKITKRGQNVTFRCDPISEHNRLYWYRQTLGQGPEFLTYFQNEAQLEKSRLLSDRFSAERPKGSFSTLEIQRTEQGDSAMYLCASLTVQNTEAFFGQGTRLTVVE
6 | 33.8 | HA-1-TCR of clone M7 (M7 TRBV7-9 with M7 TRAV25*01), unmodified (TCR, V domains shown, Expressed on transduced T cells; also called HA-1^H TCR M7; HA-1-TCR WT) V domain 1: GQQVMQIPQYQHVQEGEDFTTYCNSSTTLSNIQWYKQRPGGHPVFLIQLVKSGEVKKQKRLTFQFGEAKKNSSLHITATQTTDVGTYFCAGNTGGFKTIFGAGTRLFVKA V domain 2: GVSQDPRHKITKRGQNVTFRCDPISEHNRLYWYRQTLGQGPEFLTYFQNEAQLEKSRLLSDRFSAERPKGSFSTLEIQRTEQGDSAMYLCASSLLGNQPQHFGDGTRLSILE

— patent US20210380656A1 (ACADEMISCH ZIEKENHUIS LEIDEN H O D N LUMC, published 2021)
